{"source": "IntAct's records for PubMed 21532587", "parents": {"B1": {"name": "Protein transport protein SEC23 (Saccharomyces cerevisiae), P15303 (parent)", "chain": "MDFETNEDINGVRFTWNVFPSTRSDANSNVVPVGCLYTPLKEYDELNVAPYNPVVCSGPHCKSILNPYCVIDPRNSSWSCPICNSRNHLPPQYTNLSQENMPLELQSTTIEYITNKPVTVPPIFFFVVDLTSETENLDSLKESIITSLSLLPPNALIGLITYGNVVQLHDLSSETIDRCNVFRGDREYQLEALTEMLTGQKPTGPGGAASHLPNAMNKVTPFSLNRFFLPLEQVEFKLNQLLENLSPDQWSVPAGHRPLRATGSALNIASLLLQGCYKNIPARIILFASGPGTVAPGLIVNSELKDPLRSHHDIDSDHAQHYKKACKFYNQIAQRVAANGHTVDIFAGCYDQIGMSEMKQLTDSTGGVLLLTDAFSTAIFKQSYLRLFAKDEEGYLKMAFNGNMAVKTSKDLKVQGLIGHASAVKKTDANNISESEIGIGATSTWKMASLSPYHSYAIFFEIANTAANSNPMMSAPGSADRPHLAYTQFITTYQHSSGTNRIRVTTVANQLLPFGTPAIAASFDQEAAAVLMARIAVHKAETDDGADVIRWLDRTLIKLCQKYADYNKDDPQSFRLAPNFSLYPQFTYYLRRSQFLSVFNNSPDETAFYRHIFTREDTTNSLIMIQPTLTSFSMEDDPQPVLLDSISVKPNTILLLDTFFFILIYHGEQIAQWRKAGYQDDPQYADFKALLEEPKLEAAELLVDRFPLPRFIDTEAGGSQARFLLSKLNPSDNYQDMARGGSTIVLTDDVSLQNFMTHLQQVAVSGQA", "partner": "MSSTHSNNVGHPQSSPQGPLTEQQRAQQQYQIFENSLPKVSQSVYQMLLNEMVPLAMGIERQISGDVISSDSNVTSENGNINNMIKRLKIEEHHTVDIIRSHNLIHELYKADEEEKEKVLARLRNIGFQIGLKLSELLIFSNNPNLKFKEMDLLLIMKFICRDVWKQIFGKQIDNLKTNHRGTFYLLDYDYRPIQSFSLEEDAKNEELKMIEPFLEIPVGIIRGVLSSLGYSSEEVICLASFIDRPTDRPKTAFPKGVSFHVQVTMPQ"}, "B2": {"name": "Casein kinase I homolog HRR25 (Saccharomyces cerevisiae), P29295 (parent)", "chain": "MDLRVGRKFRIGRKIGSGSFGDIYHGTNLISGEEVAIKLESIRSRHPQLDYESRVYRYLSGGVGIPFIRWFGREGEYNAMVIDLLGPSLEDLFNYCHRRFSFKTVIMLALQMFCRIQYIHGRSFIHRDIKPDNFLMGVGRRGSTVHVIDFGLSKKYRDFNTHRHIPYRENKSLTGTARYASVNTHLGIEQSRRDDLESLGYVLIYFCKGSLPWQGLKATTKKQKYDRIMEKKLNVSVETLCSGLPLEFQEYMAYCKNLKFDEKPDYLFLARLFKDLSIKLEYHNDHLFDWTMLRYTKAMVEKQRDLLIEKGDLNANSNAASASNSTDNKSETFNKIKLLAMKKFPTHFHYYKNEDKHNPSPEEIKQQTILNNNAASSLPEELLNALDKGMENLRQQQPQQQVQSSQPQPQPQQLQQQPNGQRPNYYPEPLLQQQQRDSQEQQQQVPMATTRATQYPPQINSNNFNTNQASVPPQMRSNPQQPPQDKPAGQSIWL", "partner": "B1 chain"}, "B3": {"name": "Protein transport protein SEC23 (Saccharomyces cerevisiae), P15303 (parent)", "chain": "B1 chain"}, "B4": {"name": "Casein kinase I homolog HRR25 (Saccharomyces cerevisiae), P29295 (parent)", "chain": "B2 chain", "partner": "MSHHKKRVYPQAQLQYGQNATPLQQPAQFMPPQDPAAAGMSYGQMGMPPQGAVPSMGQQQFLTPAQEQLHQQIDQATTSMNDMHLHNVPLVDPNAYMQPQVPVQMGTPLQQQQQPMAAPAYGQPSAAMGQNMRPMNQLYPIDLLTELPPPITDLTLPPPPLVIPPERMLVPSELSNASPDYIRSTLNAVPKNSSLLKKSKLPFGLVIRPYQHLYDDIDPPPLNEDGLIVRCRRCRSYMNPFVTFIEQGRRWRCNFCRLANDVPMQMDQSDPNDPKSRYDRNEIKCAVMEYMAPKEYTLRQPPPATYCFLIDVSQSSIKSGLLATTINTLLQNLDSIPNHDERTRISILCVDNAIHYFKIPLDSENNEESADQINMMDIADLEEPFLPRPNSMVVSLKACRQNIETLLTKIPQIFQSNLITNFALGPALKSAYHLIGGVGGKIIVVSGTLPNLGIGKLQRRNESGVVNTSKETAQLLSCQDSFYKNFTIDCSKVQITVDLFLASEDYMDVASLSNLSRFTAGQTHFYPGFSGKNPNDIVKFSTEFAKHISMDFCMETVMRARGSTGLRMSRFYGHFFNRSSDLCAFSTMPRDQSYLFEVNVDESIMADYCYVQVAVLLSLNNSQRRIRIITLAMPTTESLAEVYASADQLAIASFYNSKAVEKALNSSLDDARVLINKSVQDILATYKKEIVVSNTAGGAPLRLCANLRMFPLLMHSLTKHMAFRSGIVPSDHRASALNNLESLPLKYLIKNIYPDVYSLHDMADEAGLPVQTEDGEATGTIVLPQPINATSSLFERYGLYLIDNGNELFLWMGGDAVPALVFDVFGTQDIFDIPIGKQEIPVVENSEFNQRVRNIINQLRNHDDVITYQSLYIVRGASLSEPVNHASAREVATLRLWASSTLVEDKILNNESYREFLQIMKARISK"}}, "data": [{"variants_of": "B1", "conditions": "with trs33_yeast TRS33, Q99394", "values": [{"variant": "S742D;T747E", "effect of a mutation on the interaction": "decreasing interaction"}]}, {"variants_of": "B2", "conditions": "with sec23_yeast SEC23, P15303", "values": [{"variant": "K38A", "effect of a mutation on the interaction": "disrupting interaction"}]}, {"variants_of": "B3", "conditions": "with sar1_yeast SAR1, P20606", "values": [{"variant": "T747E", "effect of a mutation on the interaction": "disrupting interaction"}, {"variant": "S742D", "effect of a mutation on the interaction": "disrupting interaction"}, {"variant": "S742D;T747E", "effect of a mutation on the interaction": "disrupting interaction"}]}, {"variants_of": "B4", "conditions": "with sec24_yeast SEC24, P40482", "values": [{"variant": "K38A", "effect of a mutation on the interaction": "disrupting interaction"}]}]}
